From publication PMC10914487, “Interaction of human dendritic cell receptor DEC205/CD205 with keratins” (The Journal of Biological Chemistry, 2024) come the findings set out here.

Where two headings read alike, the source gives them in different places.

The labels stand for the following.
T1: CysR∼CTLD3-Fc of DEC205 (human, UniProt O60449 28-627)
T1 construct: signal peptide in the construct; DEC205 (CD205, Ly75), human, CysR∼CTLD3 fragment, residues M1-S627; Human Fc homodimeric fragment with 6xHis at its C-termini fused to the C-terminus of CysR∼CTLD3; Used for Western blot (overlay) assays and ELISA; also called CysR∼CTLD3 fragment; CysR-CTLD3 fragment; source: High-Five insect cells (baculovirus made in Sf9), from culture supernatant, purified …
T1 sequence (looked up): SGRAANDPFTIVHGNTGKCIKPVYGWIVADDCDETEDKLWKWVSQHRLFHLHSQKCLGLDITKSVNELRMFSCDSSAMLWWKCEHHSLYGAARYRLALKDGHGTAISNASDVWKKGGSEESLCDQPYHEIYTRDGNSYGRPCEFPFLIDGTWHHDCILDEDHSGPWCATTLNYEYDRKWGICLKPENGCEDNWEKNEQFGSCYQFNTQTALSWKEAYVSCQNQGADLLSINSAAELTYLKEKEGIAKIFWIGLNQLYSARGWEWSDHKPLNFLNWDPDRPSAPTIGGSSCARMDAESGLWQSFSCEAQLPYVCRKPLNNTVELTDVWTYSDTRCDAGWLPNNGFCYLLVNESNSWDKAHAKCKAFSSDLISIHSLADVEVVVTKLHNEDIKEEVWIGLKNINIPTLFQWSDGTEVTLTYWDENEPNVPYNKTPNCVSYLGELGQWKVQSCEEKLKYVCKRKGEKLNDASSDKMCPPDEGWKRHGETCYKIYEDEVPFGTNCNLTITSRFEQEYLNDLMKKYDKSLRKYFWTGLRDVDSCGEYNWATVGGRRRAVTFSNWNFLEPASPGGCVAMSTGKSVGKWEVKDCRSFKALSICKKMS

T2: Human keratin 10 C-terminal tail fragment K10-T1 (residue G461-Y584) (human, UniProt P13645 461-584)
T2 chain: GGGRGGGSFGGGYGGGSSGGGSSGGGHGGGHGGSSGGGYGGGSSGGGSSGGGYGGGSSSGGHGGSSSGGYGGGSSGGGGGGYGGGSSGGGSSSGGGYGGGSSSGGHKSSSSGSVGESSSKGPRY

T3: Human keratin 1 tail region K1-T1 (residue E490-R644) (human, UniProt P04264 490-644)
T3 chain: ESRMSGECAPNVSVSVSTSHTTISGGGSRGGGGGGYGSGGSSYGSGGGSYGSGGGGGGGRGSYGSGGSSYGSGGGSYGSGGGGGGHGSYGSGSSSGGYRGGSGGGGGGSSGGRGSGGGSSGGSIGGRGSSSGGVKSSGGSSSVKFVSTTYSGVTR

T4: CysR∼CTLD3-GFP fragment of DEC205 (wild type) (human, UniProt O60449 28-627)
T4 construct: signal peptide in the construct; DEC205 (CD205, Ly75), human, CysR∼CTLD3 fragment, residues M1-S627; Used for flow cytometry; also called CysR-CTLD3 fragment; not shown: GFP, C-terminal, kept
T4 sequence (looked up): T1 sequence (looked up)

B1: K10-T11 (residue G507-G516), SUMO fusion (peptide)
chain: GSSGGGYGGG
notes: keratin 10 (K10), human, tail, residues G507-G516; source: E. coli BL21(DE3), pET28a, purified (Ni-NTA); not shown: SUMO, N-terminal, kept
B2: CysR∼CTLD3-Fc of DEC205 (Fc fusion)
chain: T1 sequence (looked up)
B3: CysR∼CTLD3 fragment of human DEC205 (residues M1-S627) with a C-terminal 6xHis-tag (domain or fragment, UniProt O60449 28-627, looked up)
chain: T1 sequence (looked up)
notes: signal peptide in the construct; DEC205 (CD205, Ly75), human, CysR∼CTLD3 fragment, residues M1-S627; Construct used for crystallisation; a homodimer stands in the asymmetric unit of the P1 crystal form only; also called N-terminal fragment of DEC205; CD205; source: High-Five insect cells (baculovirus made in Sf9), from culture supernatant, purified (Ni-NTA, gel filtration)
B4: K10-T7 (residue S477-H491), SUMO fusion (peptide, UniProt P13645 477-491, looked up)
chain: SSGGGSSGGGHGGGH
notes: keratin 10 (K10), human, tail, residues S477-H491; source: E. coli BL21(DE3), pET28a, purified (Ni-NTA); not shown: SUMO, N-terminal, kept
B5: K1-T2 (I512-G521: ISGGGSRGGG), SUMO fusion (peptide)
chain: ISGGGSRGGG
notes: keratin 1 (K1), human, tail, residues I512-G521; Expressed and purified for ELISA and flow cytometry; source: E. coli BL21(DE3), pET28a, purified (Ni-NTA)
B6: K10-T8 (residue G492-G506), SUMO fusion (peptide, UniProt P13645 492-506, looked up)
chain: GGSSGGGYGGGSSGG
notes: keratin 10 (K10), human, tail, residues G492-G506; source: E. coli BL21(DE3), pET28a, purified (Ni-NTA); not shown: SUMO, N-terminal, kept
B7: chemically synthesized peptide K10-T10 (peptide)
peptide: GSSGGGHGGG
notes: keratin 10 (K10), human, tail, residues G481-G490; source: synthetic peptide
B8: chemically synthesized peptide K10-T11 (peptide)
peptide: GSSGGGYGGG
notes: keratin 10 (K10), human, tail, residues G507-G516; source: synthetic peptide
B9: K10-T9 (residue G507-G520), SUMO fusion (peptide, UniProt P13645 507-520, looked up)
chain: GSSGGGYGGGSSSG
notes: keratin 10 (K10), human, tail, residues G507-G520; source: E. coli BL21(DE3), pET28a, purified (Ni-NTA); not shown: SUMO, N-terminal, kept
B10: K1-T3 (G532-G541 and G560-G569: GSGGGSYGSG), SUMO fusion (peptide)
chain: GSGGGSYGSG
notes: Expressed and purified for ELISA and flow cytometry; source: E. coli BL21(DE3), pET28a, purified (Ni-NTA)
B11: K10-T10 (residue G481-G490), SUMO fusion (peptide)
chain: GSSGGGHGGG
notes: keratin 10 (K10), human, tail, residues G481-G490; Form used in the Western blot (overlay) assay and, with SUMO as control, in ELISA; source: E. coli BL21(DE3), pET28a, purified (Ni-NTA); not shown: SUMO, N-terminal, kept
B12: K10-T4 (residue G461-H491), SUMO fusion (peptide, UniProt P13645 461-491, looked up)
chain: GGGRGGGSFGGGYGGGSSGGGSSGGGHGGGH
notes: keratin 10 (K10), human, tail, residues G461-H491; source: E. coli BL21(DE3), pET28a, purified (Ni-NTA); not shown: SUMO, N-terminal, kept
B13: K10-T6 (residue G461-G476), SUMO fusion (peptide, UniProt P13645 461-476, looked up)
chain: GGGRGGGSFGGGYGGG
notes: keratin 10 (K10), human, tail, residues G461-G476; source: E. coli BL21(DE3), pET28a, purified (Ni-NTA); not shown: SUMO, N-terminal, kept
B14: K10-T5 (residue G492-G520), SUMO fusion (peptide, UniProt P13645 492-520, looked up)
chain: GGSSGGGYGGGSSGGGSSGGGYGGGSSSG
notes: keratin 10 (K10), human, tail, residues G492-G520; source: E. coli BL21(DE3), pET28a, purified (Ni-NTA); not shown: SUMO, N-terminal, kept
B15: K10-T2 (residue G461-G520), SUMO fusion (domain or fragment, human, UniProt P13645 461-520, looked up)
chain: GGGRGGGSFGGGYGGGSSGGGSSGGGHGGGHGGSSGGGYGGGSSGGGSSGGGYGGGSSSG
notes: keratin 10 (K10), human, tail, residues G461-G520; source: E. coli BL21(DE3), pET28a, purified (Ni-NTA); not shown: SUMO, N-terminal, kept
B16: Human keratin 10 C-terminal tail fragment K10-T1 (residue G461-Y584) (domain or fragment, UniProt P13645 461-584, looked up)
chain: T2 chain
notes: keratin 10 (K10), human, C-terminal tail, residues G461-Y584; Expressed without a SUMO tag; source: E. coli BL21(DE3), pET28a, purified (Ni-NTA)

In data set [1] the target is T1, CysR∼CTLD3-Fc of DEC205. Briefly: far-Western, overlay or dot blot; keratin fragments resolved by SDS-PAGE and transferred to PVDF; membrane incubated with CysR∼CTLD3-Fc (10 μg/ml) in PBS, 5% milk, 0.1% Tween 20, pH 6.0 or pH 7.4, 2 h, room temperature; detected with HRP anti-human IgG Fcγ antibody. The note with it: both partners purified.
The target of data set [2] is T2, Human keratin 10 C-terminal tail …. Briefly: ELISA; pH 6.0.
Data set [3] addresses T3, Human keratin 1 tail region K1-T1 …. The data set can be described thus: ELISA; pH 6.0. A general note: ELISA stands for enzyme-linked immunosorbent assay.
Data set [4] deals with the molecule itself. Briefly: crystal structure; CysR∼CTLD3-His crystallised in 0.2 M sodium citrate, 20% PEG3350, pH 6.5-7.4, 18 °C; P1 crystal form with a homodimer in one asymmetric unit.
The target in data set [5] is T1, CysR∼CTLD3-Fc of DEC205. Briefly: ELISA; keratin fragments coated (∼2 μg per well); CysR∼CTLD3-Fc serially diluted in PBS, 2 mg/ml BSA at preset pH (acidic pH), 2 h, 37 °C; detected with HRP anti-human IgG Fcγ antibody. The note with it: both partners purified.
Data set [6] concerns the target B2. Briefly: ELISA; pH 6.0.
In data set [7] the target is T4, CysR∼CTLD3-GFP fragment of DEC205 (wild …). The data set can be described thus: flow cytometry on cells; inhibition assay: ActD-induced Jurkat cells in PBS pH 6.0 incubated with CysR∼CTLD3-GFP with or without keratin fragments (about 20 μg/ml); the pair meant is keratin fragment and CysR∼CTLD3-GFP. The note with it: both partners purified.
Data set [8] addresses B2. Briefly: ELISA; pH 6.0.

One may read the Kd as the concentration at which binding is half-saturated. Low values mean higher affinity, high ones lower affinity.

As to B1, in the data set with CysR∼CTLD3-Fc of DEC205 [1], the binding result is “binds”.

Consider B2, for which the Kd is 11.5 nM in data set [2] and 31.2 nM in data set [3]. In the case of B3, the binding result in data set [4] is given as “binds”. As for B4, the binding result with CysR∼CTLD3-Fc of DEC205 [1] was “binds”. For the molecule B5, the binding result (with CysR∼CTLD3-Fc of DEC205 [5]; in data set [7]) was “binds” each time. Moreover, in the data set with CysR∼CTLD3-Fc of DEC205 [6], binding was put at a Kd of 29.1 nM.

Consider B6, for which, in the data set with CysR∼CTLD3-Fc of DEC205 [1], the binding result was “binds”. For B7, the binding result in data set [7] is “binds”.

On to B8, for which the binding result in data set [7] is reported as “binds”.

On to B9, for which the binding result with CysR∼CTLD3-Fc of DEC205 [1] is listed as “binds”. In the case of B10, the binding result (in the data set with CysR∼CTLD3-Fc of DEC205 [5]; in data set [7]) was “binds” each time. In the data set with CysR∼CTLD3-Fc of DEC205 [6], this molecule showed a Kd of 28.7 nM. B11: the binding result with CysR∼CTLD3-Fc of DEC205 [5] is listed as “binds”. The Kd in the data set with CysR∼CTLD3-Fc of DEC205 [8] is 10.9 nM. As for B12, the binding result with CysR∼CTLD3-Fc of DEC205 [1] was “binds”.

Take B13: in the data set with CysR∼CTLD3-Fc of DEC205 [1], the binding result is “binds”.

On to B14, for which the binding result with CysR∼CTLD3-Fc of DEC205 [1] was “binds”. As for B15, the binding result in the data set with CysR∼CTLD3-Fc of DEC205 [1] is recorded as “binds”. On to B16, for which the binding result (with CysR∼CTLD3-Fc of DEC205 [5]; in data set [7]) was “binds” in each case.
